Reference: a protein production outcome set (Wang et al. 2014)

Test: label from the status in PepcDB records

Sequence | protein production
MRVLKFGGSSLADADRFLRAADIIANNAQQEEVAVVLSAPGKTTNKLVAVIEGALRNGEAELQINELEESFKTLFADIQAVLPNLEGAAFDNQVKTSLSQLRQFVHGINLLGMCPNNVNAR | failed
MRVLVVGANGKVARYLLSELKNKGHEPVAMVRNEEQGPELRERGASDIVVANLEEDFSHAFASIDAVVFAAGSGPHTGADKTILIDLWGAIKTIQEAEKRGIKRFIMVSSVGTVDPDQGPMNMRHYLVAKRLADDELKRSSLDYTIVRPGPLSNEESTGKVTVSPHFSEITRSITRHDVAKVIAELVDQQHTIGKTFEVLNGDTPIAKVVEQL | not failed
MRVMRICLVGLGAVGQGFLRAVQMKGEYLRERYGLDIRFTGVADSSGALHDPDGLDIRGVLEHKKRAGLGSHPSGYEGMTGDELLDEAEYDCLVEATPTNIEDGEPGRSLVLKAMGDGKHVVTSNKGHLALFYSELMEAASEAGVEFMFEASVGGAMPIINLARETLASCTIESVIGILNGTTNFILSRMASEGSSYRQALIEAQELGIAETNPAQDVEGTDAACKAVIIANSILGRPCTLRDVRVEGITGITQGAIELAAQEGYLIKLIAEISGDRLEVGPRLVRMGSPYAVDGTLNMATLRTDLAGEVTAVGRGAGSLETASAMLTDTITIWRKSGGR | failed
MRVTYWRDESLQKNDRSHIKAYALMSGILAQLVGSILVGIFGGQWIDNKVGTFPLFLIIGLLLGLGTGVYAMIRLIRHYYSGEQ | failed
MRVVVMGCGRVGASVADGLSRIGHEVAIIDRDSAAFNRLSPQFAGERVLGQGFDRDVLLRAGIQGADAFAAVSSGDNSNIISARLARETFGVPRVVARIYDAKRAEVYERLGIPTIATVPWTTDRLLNALMQDTETAKWRDPTGTVAVAEVVLHEDWVGHRATDLEQATGARIAFLIRFGTGVLPEPKTVLQAGDKVYIAAISGRAAEAAAIAALPPSEDFESGARR | failed
MRWDVVAWAVLALLLIAAETLAPGAFLLWMGIAAAAVCVLVLAVPGTSVLLQIVAFVVLSFVAIQVYRTWFRGKGRQSDRPLLNRRAEQLIGRSVLLDQAIVDGRGRAKVDDAFWVVSGPDLPAGALVRIVAVDGMTLQVQPNT | failed
MRYEKMNQEILAAIGGEENIQSVVHCATRLRFVLKDESKADDKKAEAIDGILQVVKKGGQYQLVIGNNVEDVYDDLINMIHIETSDSNKPKKKQNLFDAIIGAITGSIAPAIPLLAGAGMGKVLLLILTICHVLSDKSQTYQLLNLIFDTGYYFMPAYVGFSAAKIFNTDRMLGAFIGLMTVHPSWVQIVTTNKPFHFLGLPVPLVQYSSTLITAILSVWIMSYIYKFVRKITPGMVKVFMEPMLTMLITGPLVFLIIGPISNWISEGIGFIAMWLFRNAGVIAIPILAALYPWLVSIGIHKALSPISIQLVATQGFDPIIRVVALCSNMSQAAASLAVGLKTKNKKLKSLALSSSVTAYLGGITEPALFGVNLRLKKPMYGAMIGGAIAGIVASFMKLKAFIYVTPAFLSLPMWISKTENFVVQAIIVIIVASVATFIATWIIGFDDPIDEDQVKNAKKEEKKNFDKDHKKHELHAPVKGQLEDISKVADPTFASGVMGKGIAIVPSEGKIFAPEDGVVTAIFDTHHAIGLHLSNDADVLIHVGIDTVEMKGKGFKQLVQKGDKVTAGQELLDFNIDEIKKNGYDPTVVMIVTNSKDFLEVLTVLKDKDATKEVTNQDNVIILA | failed
MRYLIGGIFLLISIWQFIVTGRTFSYLKKEGGKRTSPFILLGLWSSLVFAIISFAVAIASFFYVSF | failed
MRYLVWALRLLVFVAVLMFALKNTNPVAVTFYADYVVHDVPLIVVMLVVFVVGALFGLLLTVPAAMRRRREALRLRREVERLQAAASGTPPVVTPEAVAPMSPL | failed
MRYRRAARPVATVLIHAMQTYPLVFHASPDQTIAWRDGAPVAVRTFLAEVAQLAAALPAGAHVFNACTDRYRFTVGLCATLVAGKISLLPASQTPETVRRLAAFAPDVFCLHDAPDCAIALPRFRFPEPLPPAGADAPVDVPQIDASRVMAYIFTSGSTGTPVPHRKTWGALVEGVRASAARLGLLDAHACTLVGTVPPQHMYGFESTVLLALVGGLAFSNRLPFYPADIRAALEAVPQPRVLVTSPIHLRALLSSERALPPAALVLSATAALPEPLASEAEARLAAPLIEIYGSTETGQIATRRTAQGATWHLQPGIRLEARAGTPDEDGPVTWASGAHLDAPVPMGDTLELIDDTHFLLHGRKADLINVAGKRTSLAYLNHQLNAIPGVEDGVFFMPSAADNGSEPPARLAALVVAPELAAADLLHALRERIDPAFLPRPLLLVEALPRDATGKLPRDALAALIAQHGHRGARAGAPAPITFTIPADHPALPGHFPGHPIVPGVVLLDQAIRRIGAALNRPFDACRLSSAKFLSPAAPGVPLALAFEATASGAIRFTVSAGEREVASGVLAQQEAARP | failed
MRYSLFKNYLPKEEVPEIRKELIKLALPAMGENVLQMLFGMADTAFLGHYSWKAMSGVGLSNQVFWVVQVVLIAASMGATVTIANAIGAGNRKAVRSLAWNSVFLAIFTGVILTALTPLSDVLINIFPNLEGEIESSAKEYLKVILSGSMGFSIMAVFSAMLRGAGDTRTPMIVTGLTNFLNIFLDYAMIFGKFGFPEMGVRGAAVATILSRFVGAGILTYVIFKREEFQLRKGLVPPKWSSQKEILRVGFPTAIENFVFSTGVLMFANILLIAGAEAYAGHRIGINVESLSFMPAFGISVAITTLVGRYNGMGNKEHVLGVIRQGWILSLLFQVTVGIIIFLFPEPLIRIFTSDPQIIEISKLPVKIIGLFQFFLAIDSTMNGALRGTGNTLPPMIITFISIWTARLPVAFVMVKYFQLGLLGAWIGMIADIIFRSTLKLLFFLSGKWEKRAVLTRERVKELG | failed
MRYVVGHKNPDTDSIASAIVLAYFLDCYPARLGDINPETEFVLRKFGVMEPELIESAKGKEIILVDHSEKSQSFDDLEEGKLIAIIDHHKVGLTTTEPILYYAKPVGSTATVIAELYFKDAIDLIGGKKKELKPDLAGLLLSAIISDTVLFKSPTTTDLDKEMAKKLAEIAGISNIEEFGMEILKAKSVVGKLKPEEIINMDFKNFDFNGKKVGIGQVEVIDVSEVESKKEDIYKLLEEKLKNEGYDLIVFLITDIMKEGSEALVVGNKEMFEKAFNVKVEGNSVFLEGVMSRKKQVVPPLERAYNG | not failed
MSAAIAALAASYGSGSGSESDSDSEGSRCPLPAADSLMHLTKSPSAKPSLTVAVDSAPEVAVKEDLETGVHLDPAVKEVQYNPTYETMFAPELLPSHXSXPFEQWHHPRELPTGTRVPAPVTXALFPQERGSVICTCLLSGYALDPSLDNHQVSAKYIGSVEDAEKNQGLTVFETGQKKTEKRKKFKENDASNIDGFLGPWAKYVDEKDVAKPSEEEQKELDEITAKRQKKGKQEEEKPGEEKTILHVKEMYDYQGRSYLHIPQDVGVNLRSSVPPEKCYLPKKQIHVWSGHTKGVSAVRLFPLSGHLLLSCSMDCKIKLWEVYGDRRCLRTFIGHSKAVRDICFNTAGTQFLSAAYDRYLKLWDTETGQCISRFTNRKVPYCVKFNPDEDKQNLFVAGMSDKKIVQWDIRSGEIVQEYDRHLGAVNTIVFVDENRRFVSTSDDKSLRVWEWDIPVDFKYIAEPSMHSMPAVTLSPNGKWLACQSMDNQILIFGAQNRFRLNKKKIFKGHMVAGYACQVDFSPDMSYVISGDGNGKLNIWDWKTTKLYSRFKAHDKVCIGAVWHPHETSKVITCGWDGLIKLWD | failed
MSAEAADREAVSGSRPCTPPQTSWFEFLLNPSLLEQHLHSPHPDPSPVQLIFQFLEQASKPSVNEQNQVQPPVDNRRNRTLKLMALKVAAHLRWDLNMLEKGLTIPVLNMLLNELLCVSHVPPGVKHVDLDLSSLPPTTAMAVVFYNRWAIRTIVLSSFPEKQTKPGPHQLNMMNMLQQEKEHTENILSVLREQATDSIMVLEGALSIKKDFYIHL | not failed
MSAGEHAGGVFLGGIAIDEPTREAARAMVDRDREEFLPADPVAWVDDQLSELDDAFLRPAVNVRAVRLGPLRDVAAVCAAHDAILEVNAHCRQDELCDAGAGETLLRDTSRLCEQVRAASDEGAAVSVKVRAGVQGVHLPVLAQAIERAGAAAIHVDAMDSRRVVRDVADATALFVVANNGVRTRDDVFEYLSYGADAVSVGRPSRDPERVRAVYAAVKEWLL | failed
MSAHLLIILPLIIPFVAAVAALLFARWPTVQKGINIVSMGGILAASLGLLSRITEQGIQVTTIGDWPVPFGIVFVVDHLSVVMLIVSAIIGLAVAVYAVPDVDDARVRFGFYPFFNLLMIGINGAFLTGDLFNLYVWFEVMLISSFVLIVLGNTDEQLAGAVKYVVINLVSSLLFLSGVGLVYGMTGTLNMAELSLALSEVGQPGLVTVVAMLFLISFGIKAALFPLFFWLPASYHTPPASVSAFFAGLLTKVGVYALFRVFTLLFTQDVGYTHTLLLWGAGLTMVTGVLGAAVQNDFRRVLSFHIVSQIGYMIMGLALYTPLAILGGVFYIVHHIIVKANLFLVSGVAKRLRGSFSLKSLDGLYAYHPWLAALFIIPAFSLAGFPPLSGFWAKLILTIAGIETGAYWIVTVAVAVGLFTMFSMTKIWVKAFLPGGGGDLADAVSSMGLGTRVMYVPIAGLAALTIMISVFAGPVYDLAERSADELYNSSEYVEAVLNHEKSAADAGPRPGVDGRTGRVHAR | failed
MSAICQVTGRQPGYGKSVSHSHRRTSRRWNPNVQRRKFYLPSEGRTITLNVSTKGLKVIDRDGIESVVAKIRARGEKILEHHHHHH | failed
MSAITRYLAMLRLFGMLLCAAAIPSVATATVPVTVAVAASDVEEEAVEASAVGAEAEAARDAGYESAEVPALARRVTDLTATLDAAERARLEASLAALEARKGAQVAILMVPSTYPDSIEAYATRVFEAWKLGRKGIDDGVLVLVAKDDRRMRIEVGYGLEGTITDIDAGRIIREYMTPAFRQQDYAGGLEAAAQRLVRLIDGEALPPPPRDPLEPGAVRQTLAIAFLLGALGGVALLVRPRAWYWTLGAVVALAAALALGRHWPAGAMVALAEMVAVLGVGFGALLKYSRGARWFFAILVLYALGLFWAYRRYGLPVLHYGLAVPLSLGLSLLMLAGAWQGLRRGRRWAYLPGLLGLLLTLALECLLLLVDDPLNSIEALIILPAACLPLLIGCNFSAGGSGGGRRRGGDYASSSGSSSSSSSSSSSDSFSGGGGSSGGGGASGSWLEHHHHHH | failed
MSAKRVFEKFDKNKDGKLSLDEFREVALAFSPYFTQEDIVKFFEEIDVDGNGELNADEFTSCIEKML | not failed
MSALIDTWFLGCRAAATAVLYVLFAVVAGGAVSAARAATVAASAPAPVTVGSGKKAVRQGISLELLVKPTHAEDGFSAAVVEGAYADVSLKMTDAATGHPVTVMQPRVWIDLRKGTGDFREKQMACSDKVRTYLQGTLSFRPDIDLNSYFVLTLNNDASISVIDPIIGVAGYSQLYAMILLKRPGEDWVFSFDGKRLYVTMPKAGEVAEIDTDSLAVVRNIPAGAMPVRMAFQPDSRYLWVGNDSSDPARSGVTVIDPFSGTQAAFIQTGAGHHEIAFADDSRYAFVTNQQSGTLTIIDIQSLAPVKTLRLGDGPVSVAYSALSKCAHVVCEGDGNLLVVDGLSHEIISRKTFEPGFREVRFAPGDRWYFTVNGKNGQILVFDAAGNELLHSTVVAGRPEHVSFSTEFAYIRSLGTADVTLIPLAALGKAAILTPLVVSGGSRPPADSPLLPPTADPIVVTPEGNSVLIASPSDGAVVYYMEGMGVPMGSFKTYGRLPRAVNVINRQLRQNVPGVFSSRVKIPLAGTYDVAVLLDSPRIVQCFEFSADANPALQRLKTERPVMVEFVGSALRVEAGRESVVRFRVTDPVTHEPVADLRDLIVVTSLVPTGAWRQQLVSRPVGNGIYEVTFTARKVGIYSFNFAIPSLKVKLYQLAGMMIHAVETPAEAGSDVPAGQKKD | failed
